In publication doi:10.64898/2025.12.12.693935:

Target: CD82-StrepII3 (human) (UniProt P27701)
Experiment: SEC

B1: CADM1-His6 (natural protein)
chain: QNLFTKDVTVIEGEVATISCQVNKSDDSVIQLLNPNRQTIYFRDFRPLKDSRFQLLNFSSSELKVSLTNVSISDEGRYFCQLYTDPPQESYTTITVLVPPRNLMIDIQKDTAVEGEEIEVNCTAMASKPATTIRWFKGNTELKGKSEVEEWSDMYTVTSQLMLKVHKEDDGVPVICQVEHPAVTGNLQTQRYLEVQYKPQVHIQMTYPLQGLTREGDALELTCEAIGKPQPVMVTWVRVDDEMPQHAVLSGPNLFINNLNKTDNGTYRCEASNIVGKAHSDYMLYVYDPPTTIPPPTTTTTTTTTTTTTILTIITDSRAGEEGSIRAVDHAVIGGVVAVVVFAMLCLLIILGRYFARHKGTYFTHEAKGADDAADADTAIINAEGGQNNSEEKKEYFI
stoichiometry N: 1
